Reference: patent US20250243277A1 (AVACTA LIFE SCIENCES, published 2025)
Where two headings read alike, the source gives them in different places.

Key:
[1] = biological target: papain (UniProt P00784); assay: cell-based or functional assay
[2] = biological target: T1, human PD-L1-Fc (R&D Systems) (human, UniProt Q9NZQ7 19-239); assay: SPR (Biacore T200): human PD-L1-Fc amine-coupled on a CM5 chip, Affimer monomer titrated as analyte, 1:1 Langmuir fit
T1 construct: Bought from R&D Systems; Biotinylated in-house for the phage selection; also called huPD-L1-Fc; human PD-L1-Fc antigen; not shown: Fc part of the bought fusion
Method: (§1) BIACORE™ T200 binding kinetic analysis was performed on monomer AFFIMER® clones with running buffer HBS-EP+ (Cytiva) and a series S sensor CM5 chip immobilized with human PD-L1-Fc (R&D Systems) in 10 mM Sodium acetate pH4.0 μsing amine coupling reagents (Cytiva). A concentration titration of AFFIMER® monomer was run as analyte with an association time of 150 seconds, followed by a dissociation time of 300 seconds at a flow rate of 30 μl/min. For Clone 80, the association time was increased to 500 seconds and 1000 seconds dissociation time. The human PD-L1-Fc immobilized surface was regenerated with 3-3.5 mM NaOH solution (Cytiva) for 20-30 seconds at 20 μl/min flow rate. The kinetic data was blank subtracted and fit to a 1:1 Langmuir binding model (BIAcore evaluation software; Cytiva) to calculate an apparent KD value.

[3] = biological target: T2, human PD-L1 on CHO cells (human, UniProt Q9NZQ7 19-290); assay: cell-based or functional assay
[4] = biological target: T2, human PD-L1 on CHO cells; assay: cell-based or functional assay; remark: listed apart in the source
[5] = biological target: T1, human PD-L1-Fc (R&D Systems); assay: PD-1/PD-L1 competitive ELISA, average n = 2; competitor PD-1-Fc coated
Method: (§2) The competitive inhibition of AFFIMER® multimers was evaluated by enzyme linked immunosorbent assay (ELISA). Human PD-1-Fc (R&D Systems) was coated at 0.5 μg/ml on the plate. Plates were washed two times with […] of washing buffer (PBS, Tween 20 0.1%) with a plate washer and saturated with Casein 5% (Sigma) in PBS for 90 minutes at room temperature (25±1° C.). Plates were subsequently washed. AFFIMER® polypeptides and controls (human PD-1-Fc; R&D Systems or blank) were then diluted in duplicate, and preincubated with huPD-L1-Fc (R&D Systems) at a predefined concentration equivalent to the EC₈₀ for 30 minutes then loaded on the plate for 90 minutes at room temperature (25±1° C.). Plates were washed 3 times. Biotinylated polyclonal antibody anti-human PD-L1 (R&D Systems) was then diluted in dilution buffer and incubated 90 minutes at room temperature (25±1° C.). Plates were washed 3 times and Streptavidin HRP was incubated for 30 minutes at room temperature (25±1° C.). Plates were washed and the substrate (TMB; Pierce Thermo-Scientific) added to the plate for 10 minutes. The reaction was stopped using an acidic solution and plates were read at absorbance 450-630 nm. The IC₅₀ was then calculated using the interpolated non-linear four-parameter standard curve.
Analysis identified three mutants which no longer bind target antigen, three mutants which have reduced binding and twelve (12) mutants which retaining binding to target antigen. […] The mutant AFFIMER® clones which retained binding to PD-L1 were assessed in both a competition ELISA (as described in Example 4) and the PD1:PD-L1 blockade cell-based Promega assay (as described in Example 5).

[6] = biological target: T2, human PD-L1 on CHO cells; assay: flow cytometry histogram, live-gated hu-PD-L1 CHO cells, Affimer at 100 nM
Method: Human PD-L1 CHO cells having a cell surface over expressing human PD-L1 or CHO-negative cells were plated at 50,000 cells per well in a round bottom tissue culture plate. AFFIMER® clones were titrated from 700 nM or monoclonal antibody (mAb) controls titrated from 10 nM in cell staining buffer (PBS, 1% BSA+2 mM EDTA+0.05% Sodium Azide buffer) and incubated for 1 hour. After two washes with staining buffer, AFFIMER® polypeptides were detected with an anti-cystatin antibody. After a further two washes, AF488-conjugated anti-goat antibody (to detect AFFIMER® polypeptides) or AF488-conjugated anti human IgG1 antibody (to detect mAb controls) were incubated for 40 minutes followed by an additional wash step. Viability dye (Zombie Aqua reagent, Biolegend) was added and the plates were incubated for 10 min. After a final wash, cells were fixed and the data acquired using a multiparameter flow cytometer (Guava 12HT, Luminex Corp).

[7] = biological target: T1, human PD-L1-Fc (R&D Systems); assay: PD-1/PD-L1 competition ELISA, % inhibition: Affimer pre-incubated with huPD-L1-Fc, then loaded on plate-coated human PD-1-Fc (blocked ligand)
Method: as §2, with “curve. […]” for “curve.”

[8] = biological target: T1, human PD-L1-Fc (R&D Systems); assay: SPR (Biacore T200): human PD-L1-Fc amine-coupled on a CM5 chip, Affimer monomer titrated as analyte (500 s association, 1000 s dissociation), 1:1 Langmuir fit
Method: as §1

[9] = biological target: T1, human PD-L1-Fc (R&D Systems); assay: PD-L1/PD-1 competition ELISA, % inhibition: Affimer pre-incubated with huPD-L1-Fc, then loaded on plate-coated human PD-1-Fc (blocked ligand). Column head on the sheet reads 'EC50nM'; the text calls these values IC50
Method: as §2

[10] = biological target: T2, human PD-L1 on CHO cells; assay: cell-based or functional assay; remark: listed apart in the source
[11] = biological target: T1, human PD-L1-Fc (R&D Systems); assay: SPR (Biacore 8K), binding to PD-L1-Fc
[12] = biological target: T2, human PD-L1 on CHO cells; assay: cell-based or functional assay; remark: listed apart in the source
[13] = biological target: T2, human PD-L1 on CHO cells; assay: cell-based or functional assay; remark: listed apart in the source
[14] = biological target: T2, human PD-L1 on CHO cells; assay: cell-based or functional assay; remark: listed apart in the source
[15] = biological target: T2, human PD-L1 on CHO cells; assay: cell-based or functional assay; remark: listed apart in the source

T1 sequence (Q9NZQ7 19-239 limits assumed): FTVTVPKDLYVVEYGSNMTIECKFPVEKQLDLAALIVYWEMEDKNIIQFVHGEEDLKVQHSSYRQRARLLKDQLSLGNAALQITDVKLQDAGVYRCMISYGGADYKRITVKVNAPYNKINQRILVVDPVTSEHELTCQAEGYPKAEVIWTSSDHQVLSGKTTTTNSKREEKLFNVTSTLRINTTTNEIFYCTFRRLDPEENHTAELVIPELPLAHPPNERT
T2 sequence (Q9NZQ7 19-290): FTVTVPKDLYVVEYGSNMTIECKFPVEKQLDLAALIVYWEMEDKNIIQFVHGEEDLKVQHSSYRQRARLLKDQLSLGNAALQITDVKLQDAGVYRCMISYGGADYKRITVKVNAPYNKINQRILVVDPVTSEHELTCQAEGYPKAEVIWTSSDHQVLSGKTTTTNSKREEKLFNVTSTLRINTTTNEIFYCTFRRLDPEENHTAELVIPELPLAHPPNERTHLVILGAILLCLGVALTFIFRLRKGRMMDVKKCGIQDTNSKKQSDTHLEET
papain, sequence (P00784 134-345 limits assumed): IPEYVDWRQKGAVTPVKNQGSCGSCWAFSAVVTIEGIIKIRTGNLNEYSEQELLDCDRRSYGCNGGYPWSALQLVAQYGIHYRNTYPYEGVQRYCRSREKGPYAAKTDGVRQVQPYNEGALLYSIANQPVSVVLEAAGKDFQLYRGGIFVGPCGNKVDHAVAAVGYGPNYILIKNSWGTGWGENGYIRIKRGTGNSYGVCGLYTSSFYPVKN

An IC50, inhibition of papain cleavage of Z-Phe-Arg-AMC [1] of 3.8 nM was found for Stefin A (from UniProt P01040 1-98) in this work.

B1: Clone 111 (designed binder)
chain: MIPGGLSEAKPATPEIQEIVDKVKPQLEEKTGETYGKLEAVQYKTQVDIQDRLGGFIGTNYYIKVRAGDNKYMHLKVFKSLHFYRGILYREDLVLTGYQVDKNKDDELTGF
notes: His-tagged
A Kd [2] of 44 nM, a koff [2] of 0.0457 s⁻¹ and a kon [2] of 1.04e+06 M⁻¹ s⁻¹ were found for B1 in this work.

B2: Clone 80 (designed binder)
chain: MIPGGLSEAKPATPEIQEIVDKVKPQLEEKTGETYGKLEAVQYKTQVVRRKHFPQWPGTNYYIKVRAGDNKYMHLKVFKSLDLQPREVFQEDLVLTGYQVDKNKDDELTGF
notes: type III Affimer monomer made in E. coli; His-tagged; also called Clone 80 parent control molecule
B2 was tested, and the “IC50, PD-1/PD-L1 blockade Bioassay (Promega)” value [3] was 30 nM, the “EC50 (read off the curve); Promega PD-1/PD-L1 blockade bioassay, fold of induction” value (shortened to “EC50 (read off the curve) … fold of induction”) [4] was ~80 nM and the IC50 [5] was 2.6 nM. For the same molecule, the “% (cells in the positive gate)” value [6] was 98.9%, the MFI [6] was 1330 MFI and the IC50 [7] was 0.19 nM. For the same molecule, the Kd [8] was 0.568 nM, the koff [8] was 0.00163 s⁻¹ and the kon [8] was 2.88e+06 M⁻¹ s⁻¹. It also gave an EC50 [9] of 0.538 nM.

B3: Clone 80 K51A (designed binder)
chain: MIPGGLSEAKPATPEIQEIVDKVKPQLEEKTGETYGKLEAVQYKTQVVRRAHFPQWPGTNYYIKVRAGDNKYMHLKVFKSLDLQPREVFQEDLVLTGYQVDKNKDDELTGF
notes: alanine mutant of Clone 80 made in E. coli
For B3, the “EC50 (read off the curve) … fold of induction” value [10] was ~200 nM, the Kd [11] was 0.66 nM and the IC50 [5] was 3.35 nM.

B4: Clone 80 V88A (designed binder)
chain: MIPGGLSEAKPATPEIQEIVDKVKPQLEEKTGETYGKLEAVQYKTQVVRRKHFPQWPGTNYYIKVRAGDNKYMHLKVFKSLDLQPREAFQEDLVLTGYQVDKNKDDELTGF
notes: as for B3
In the case of B4, the “EC50 (read off the curve) … fold of induction” value [12] is reported as ~100 nM, the Kd [11] is reported as 1.96 nM and the IC50 [5] is reported as 2.56 nM.

B5: Clone 80 W56A (designed binder)
chain: MIPGGLSEAKPATPEIQEIVDKVKPQLEEKTGETYGKLEAVQYKTQVVRRKHFPQAPGTNYYIKVRAGDNKYMHLKVFKSLDLQPREVFQEDLVLTGYQVDKNKDDELTGF
notes: as for B3
B5: no binding [11].

B6: Clone 80 E87A (designed binder)
chain: MIPGGLSEAKPATPEIQEIVDKVKPQLEEKTGETYGKLEAVQYKTQVVRRKHFPQWPGTNYYIKVRAGDNKYMHLKVFKSLDLQPRAVFQEDLVLTGYQVDKNKDDELTGF
notes: as for B3
In the case of B6, the “EC50 (read off the curve) … fold of induction” value [13] is reported as ~100 nM, the Kd [11] is reported as 0.61 nM and the IC50 [5] is reported as 3.83 nM.

B7: Clone 80 Q90A (designed binder)
chain: MIPGGLSEAKPATPEIQEIVDKVKPQLEEKTGETYGKLEAVQYKTQVVRRKHFPQWPGTNYYIKVRAGDNKYMHLKVFKSLDLQPREVFAEDLVLTGYQVDKNKDDELTGF
notes: as for B3
With B7 the “EC50 (read off the curve) … fold of induction” value [14] was ~100 nM, the Kd [11] was 0.97 nM and the IC50 [5] was 2.23 nM.

B8: Clone 80 R86A (designed binder)
chain: MIPGGLSEAKPATPEIQEIVDKVKPQLEEKTGETYGKLEAVQYKTQVVRRKHFPQWPGTNYYIKVRAGDNKYMHLKVFKSLDLQPAEVFQEDLVLTGYQVDKNKDDELTGF
notes: as for B3
In the case of B8, the “EC50 (read off the curve) … fold of induction” value [15] is reported as ~70 nM, the Kd [11] is reported as 4.02 nM and the IC50 [5] is reported as 2.33 nM.

B9: Clone 80 R49A (designed binder)
chain: MIPGGLSEAKPATPEIQEIVDKVKPQLEEKTGETYGKLEAVQYKTQVVARKHFPQWPGTNYYIKVRAGDNKYMHLKVFKSLDLQPREVFQEDLVLTGYQVDKNKDDELTGF
notes: as for B3
In the case of B9, the “EC50 (read off the curve) … fold of induction” value [4] is reported as ~200 nM, the Kd [11] is reported as 2 nM and the IC50 [5] is reported as 4.83 nM.

B10: Clone 255 (designed binder)
chain: MIPRGLSEAKPATPEIQEIVDKVKPQLEEKTNETYGKLEAVQYKTQVLAREGRQDWVLSTNYYIKVRAGDNKYMHLKVFNGPWVPFPHQQLADRVLTGYQVDKNKDDELTGF
notes: type I Affimer monomer
In the case of B10, the “IC50, PD-1/PD-L1 blockade Bioassay (Promega)” value [3] is reported as 30 nM, the “% (cells in the positive gate)” value [6] is reported as 98% and the MFI [6] is reported as 1010 MFI. For the same molecule, the EC50 [9] was 0.205 nM.

B11: Clone 54 (designed binder)
chain: MIPGGLSEAKPATPEIQEIVDKVKPQLEEKTGETYGKLEAVQYKTQVVINQQQIKHSGTNYYIKVRAGDNKYMHLKVFKSLWQHIPPDFWEDLVLTGYQVDKNKDDELTGF
notes: type III Affimer monomer; His-tagged
A Kd [2] of 45.6 nM, a koff [2] of 0.0909 s⁻¹ and a kon [2] of 1.99e+06 M⁻¹ s⁻¹ were found for B11 in this work. For the same molecule, the EC50 [9] was 16.9 nM.

B12: Clone 52 (designed binder)
chain: MIPGGLSEAKPATPEIQEIVDKVKPQLEEKTGETYGKLEAVQYKTQVVGIREDWNWSGTNYYIKVRAGDNKYMHLKVFKSLFEPKKLEPAEDLVLTGYQVDKNKDDELTGF
notes: His-tagged
An EC50 [9] of 197 nM was found for B12 in this work.

B13: Clone 256 (designed binder)
chain: MIPRGLSEAKPATPEIQEIVDKVKPQLEEKTNETYGKLEAVQYKTQVLAKEHGPDSWWSTNYYIKVRAGDNKYMHLKVFNGPQEKNQWVEEADRVLTGYQVDKNKDDELTGF
notes: type I Affimer monomer
In the case of B13, the “% (cells in the positive gate)” value [6] is reported as 98.1%, the MFI [6] is reported as 1240 MFI and the EC50 [9] is reported as 8.55 nM.

B14: Clone 58 (designed binder)
chain: MIPGGLSEAKPATPEIQEIVDKVKPQLEEKTGETYGKLEAVQYKTQVVKQLIIWHWTGTNYYIKVRAGDNKYMHLKVFKSLFKNSNSHLEEDLVLTGYQVDKNKDDELTGF
notes: His-tagged
An EC50 [9] of 69.9 nM was found for B14 in this work.
